Assay results from publication PMC12218935, “Opposing role of phagocytic receptors MERTK and AXL in Progranulin deficient FTD” (Communications Biology, 2025).

T1: Fc-Mer (MERTK Fc chimera) (human, UniProt Q12866 21-505)
T1 chain: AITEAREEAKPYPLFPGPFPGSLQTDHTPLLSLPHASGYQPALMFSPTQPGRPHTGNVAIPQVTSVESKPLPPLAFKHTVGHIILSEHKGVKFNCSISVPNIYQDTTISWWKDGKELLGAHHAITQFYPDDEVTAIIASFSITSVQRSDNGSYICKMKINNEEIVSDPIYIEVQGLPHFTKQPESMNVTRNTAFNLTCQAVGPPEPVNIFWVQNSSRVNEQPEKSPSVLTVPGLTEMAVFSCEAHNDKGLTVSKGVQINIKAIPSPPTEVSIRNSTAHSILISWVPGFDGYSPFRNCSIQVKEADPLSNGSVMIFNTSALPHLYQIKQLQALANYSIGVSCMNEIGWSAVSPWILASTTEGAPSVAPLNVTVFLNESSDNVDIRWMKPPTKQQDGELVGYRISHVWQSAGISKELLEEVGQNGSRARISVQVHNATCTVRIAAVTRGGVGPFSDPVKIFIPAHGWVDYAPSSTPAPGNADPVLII

T2: Gas6, recombinant human, His-tagged (human, UniProt Q14393 31-678)
T2 construct: human GAS6, recombinant, bought from R&D Systems; Limits and the end of the tag are in the vendor's data sheet; also called H6-tagged-GAS6; source: bought: R&D Systems (885-GSB-050)
T2 sequence (looked up): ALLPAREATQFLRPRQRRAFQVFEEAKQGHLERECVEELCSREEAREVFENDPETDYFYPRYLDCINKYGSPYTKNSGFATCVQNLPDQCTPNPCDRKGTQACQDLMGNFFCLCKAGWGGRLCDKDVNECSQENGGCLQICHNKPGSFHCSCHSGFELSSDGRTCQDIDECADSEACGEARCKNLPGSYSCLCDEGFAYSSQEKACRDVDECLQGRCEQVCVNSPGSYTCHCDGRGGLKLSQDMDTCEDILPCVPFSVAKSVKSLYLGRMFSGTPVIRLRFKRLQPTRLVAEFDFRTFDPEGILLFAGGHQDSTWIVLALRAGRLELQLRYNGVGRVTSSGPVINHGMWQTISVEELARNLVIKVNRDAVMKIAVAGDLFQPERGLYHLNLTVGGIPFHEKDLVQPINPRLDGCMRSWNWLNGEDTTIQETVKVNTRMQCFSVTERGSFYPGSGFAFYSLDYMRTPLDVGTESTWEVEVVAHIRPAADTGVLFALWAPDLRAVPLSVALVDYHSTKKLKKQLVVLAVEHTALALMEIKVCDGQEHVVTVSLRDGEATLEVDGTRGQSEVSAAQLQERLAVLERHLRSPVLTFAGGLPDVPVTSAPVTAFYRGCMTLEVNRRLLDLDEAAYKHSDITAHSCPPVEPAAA


Legend:
[1] = target: T1, Fc-Mer (MERTK Fc chimera); test: SPR
[2] = target: T2, Gas6, recombinant human, His-tagged; test: SPR; Biacore T200, CM5 chip; Protein A amine-coupled (2300 RU), Fc-Mer (150 RU) or Fc-Axl (140 RU) captured; Gas6 or PGRN injected at 20 uL/min for 500 s, 1000 s dissociation; HBS-EP+ with 1.5 mM CaCl2 and 0.1% BSA; 1:1 kinetic model; conditions: both partners purified

Row | Binder | koff [1] [s⁻¹] | Kd [2] [nM]
1 | Gas6, recombinant human, His-tagged (ligand) ALLPAREATQFLRPRQRRAFQVFEEAKQGHLERECVEELCSREEAREVFENDPETDYFYPRYLDCINKYGSPYTKNSGFATCVQNLPDQCTPNPCDRKGTQACQDLMGNFFCLCKAGWGGRLCDKDVNECSQENGGCLQICHNKPGSFHCSCHSGFELSSDGRTCQDIDECADSEACGEARCKNLPGSYSCLCDEGFAYSSQEKACRDVDECLQGRCEQVCVNSPGSYTCHCDGRGGLKLSQDMDTCEDILPCVPFSVAKSVKSLYLGRMFSGTPVIRLRFKRLQPTRLVAEFDFRTFDPEGILLFAGGHQDSTWIVLALRAGRLELQLRYNGVGRVTSSGPVINHGMWQTISVEELARNLVIKVNRDAVMKIAVAGDLFQPERGLYHLNLTVGGIPFHEKDLVQPINPRLDGCMRSWNWLNGEDTTIQETVKVNTRMQCFSVTERGSFYPGSGFAFYSLDYMRTPLDVGTESTWEVEVVAHIRPAADTGVLFALWAPDLRAVPLSVALVDYHSTKKLKKQLVVLAVEHTALALMEIKVCDGQEHVVTVSLRDGEATLEVDGTRGQSEVSAAQLQERLAVLERHLRSPVLTFAGGLPDVPVTSAPVTAFYRGCMTLEVNRRLLDLDEAAYKHSDITAHSCPPVEPAAA | 0.000888 | –
2 | Fc-Mer (MERTK Fc chimera) (Fc fusion, human, UniProt Q12866 21-505, looked up, human MERTK (Mer) part of the bought Fc chimera; Captured on Protein A by its Fc; As far as I recall the vendor's product is the extracellular domain of human Mer fused to human IgG1 Fc at the C-terminus; limits are in the vendor's data sheet; source: bought: R&D Systems (891-MR-100)) AITEAREEAKPYPLFPGPFPGSLQTDHTPLLSLPHASGYQPALMFSPTQPGRPHTGNVAIPQVTSVESKPLPPLAFKHTVGHIILSEHKGVKFNCSISVPNIYQDTTISWWKDGKELLGAHHAITQFYPDDEVTAIIASFSITSVQRSDNGSYICKMKINNEEIVSDPIYIEVQGLPHFTKQPESMNVTRNTAFNLTCQAVGPPEPVNIFWVQNSSRVNEQPEKSPSVLTVPGLTEMAVFSCEAHNDKGLTVSKGVQINIKAIPSPPTEVSIRNSTAHSILISWVPGFDGYSPFRNCSIQVKEADPLSNGSVMIFNTSALPHLYQIKQLQALANYSIGVSCMNEIGWSAVSPWILASTTEGAPSVAPLNVTVFLNESSDNVDIRWMKPPTKQQDGELVGYRISHVWQSAGISKELLEEVGQNGSRARISVQVHNATCTVRIAAVTRGGVGPFSDPVKIFIPAHGWVDYAPSSTPAPGNADPVLII | – | 27.7
